Reference: patent US20190322750A1 (Y BIOLOGICS, published 2019)
Changes are numbered by the printed parent chain. Blank lines part the entries; values can stand above or below the binder they belong to.

How the values were obtained:
[1] = target: T1, PD-L1 on CHO cell line highly expressing PD-L1 (PD-1/PD-L1 blockade bioassay kit, promega J1250) (UniProt Q9NZQ7 19-290, limits assumed); experiment: cell-based or functional assay
[2] = target: T1, PD-L1 on CHO cell line highly …; experiment: cell-based or functional assay; remark: listed apart in the source
[3] = target: T2, PD-L1-hFc (human, UniProt Q9NZQ7 19-238); experiment: kinetics on PD-L1-hFc (legend paragraph 40; text names ProteOn XPR36, the sheet's sensorgrams have a nm axis)
T2 construct: extracellular domain; Made in HEK-293F cells, protein A purified; also called PD-L1 antigen; PD-L1 protein
T2 sequence (Q9NZQ7 other isoform, or with tags, fused parts or gaps limits assumed): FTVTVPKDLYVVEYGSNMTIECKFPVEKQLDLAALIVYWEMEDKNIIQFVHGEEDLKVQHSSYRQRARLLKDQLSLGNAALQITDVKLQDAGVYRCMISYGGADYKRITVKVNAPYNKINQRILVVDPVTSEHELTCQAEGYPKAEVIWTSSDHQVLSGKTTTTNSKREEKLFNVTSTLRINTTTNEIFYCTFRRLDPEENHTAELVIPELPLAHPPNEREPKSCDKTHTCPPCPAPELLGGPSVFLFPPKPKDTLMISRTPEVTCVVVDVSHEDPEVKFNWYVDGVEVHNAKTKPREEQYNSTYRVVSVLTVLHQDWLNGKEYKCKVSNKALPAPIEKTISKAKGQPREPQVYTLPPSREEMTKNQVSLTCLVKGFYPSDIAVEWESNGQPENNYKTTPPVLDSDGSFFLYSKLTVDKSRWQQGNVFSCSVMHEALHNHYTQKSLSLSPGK

[4] = target: T3, human PD-L1 over-expressed on HEK293E cells (human, UniProt Q9NZQ7 19-290); experiment: flow cytometry on HEK293E/PD-L1 cells, FITC anti-human IgG, serial dilutions; fit table
T3 construct: whole, on cells; also called human PD-L1 (NM_014143.2)
T3 sequence (Q9NZQ7 19-290): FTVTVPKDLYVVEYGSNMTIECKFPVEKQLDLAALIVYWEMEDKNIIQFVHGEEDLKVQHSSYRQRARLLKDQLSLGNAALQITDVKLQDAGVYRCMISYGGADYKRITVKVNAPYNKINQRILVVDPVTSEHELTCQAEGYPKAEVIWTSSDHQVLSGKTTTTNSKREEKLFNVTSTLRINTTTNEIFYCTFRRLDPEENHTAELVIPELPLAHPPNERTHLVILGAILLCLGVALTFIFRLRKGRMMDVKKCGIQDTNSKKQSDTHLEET
Experimental: 0.5 to 1×10⁶ cells per sample were prepared from the transformation cell pools highly expressing human PD-L1, and antibodies were serially diluted at a constant dilution rate and reacted with the prepared cells at 4° C. for 20 minutes. Then, the cells were washed three times with PBS (#LB001-02, Welgene) containing 2% fetal bovine serum and reacted at 4° C. for 20 minutes with an anti-human IgG antibody (#FI-3000, Vectorlabs) conjugated with a FITC (fluorescein isothiocyanate) fluorescent substance. Then, the cells were subjected to the same washing process as above and then suspended in 0.5 ml of PBS containing 2% FBS (#26140-079, Thermo Fisher) with an FACSCanto II flow cytometer (BD Biosciences, USA) as a flow cytometer (Table 11).

T1 sequence (Q9NZQ7 19-290 limits assumed): as the sequence (Q9NZQ7 19-290) above

Average *EC50 [nM], PD-1/PD-L1 blockade bioassay [1]: 0.48 nM
B1: PDL1-16E12 (LS/4A6) (antibody, V domains shown)
VH: QMQLVQSGAEVKKPGSSVKVSCKASGGTFSSYAISWVRQAPGQGLEWMGRIIPILGIANYAQKFQGRVTITADKSTSTAYMELSSLRSEDTAVYYCAKPRDGYNLVAFDIWGQGTMVTVSS
VL: QLVLTQPTSVSGAPGQRVIISCTGSSSNIGAGYDVHWYQQLPGTAPKLLIYGNTNRPSGVPDRFSGSKSGTAASLAITGLQAEDEADYYCQSFDRSRSGSNVFGTGTKVTVL

Average *EC50 [nM], PD-1/PD-L1 blockade bioassay [1]: 0.45 nM
B2: PDL1-16E12 (LS/4A10) (antibody, V domains shown)
VH: B1 VH
VL: QLVLTQPPSVSGAPGQRVTISCTGSNSNIGAGYDVHWYQQLPGTAPKLLIHGNNIRPSGVPDRFSGSRSGTSASLAITGLQADDEANYFCQSYDNSLRGSVFGTGTKVTVL

Average *EC50 [nM], PD-1/PD-L1 blockade bioassay [1]: 0.49 nM
B3: PDL1-16E12 (LS/4E12) (antibody, V domains shown)
VH: B1 VH
VL: QLVLTQPPSVSAAPGQKVTFSCTGSSSNIGAGYDVHWYQHLPGAAPRLLIYANTNRPLGVPDRFSGSKSGTSASLAITGLQAEDEADYYCQSYDNRLSGSLFGGGTKLTVL

Average *EC50 [nM], PD-1/PD-L1 blockade bioassay [1]: 0.63 nM
B4: PDL1-16E12 (LS/4B11) (antibody, V domains shown)
VH: B1 VH
VL: QLVLTQPPSVSGAPGQRVTISCTGTNSNIGAGHDVQWYQQIPGTAPKLLIYGNNNRPSGVPDRFSGSKSGTLASLAITGLQSEDEADYYCHSYDGSLSEGVFGTGTKVTVL

Average *EC50 [nM], PD-1/PD-L1 blockade bioassay [1]: 1.02 nM
B5: PDL1-16E12 (LS/4H11) (antibody, V domains shown)
VH: B1 VH
VL: QLVLTQPPSVSGAPGQRVTISCTGSSSNVGAGYDVHWYQQLPGTAPKLLIYGNNNRPSGVPARFSGSKSGTSASLAITGLQAEDEADYYCQSYDSRLGVVFGGGTKLTVL

EC50 (first run) [2]: 0.43 nM
EC50 (second run) [2]: 0.26 nM
Kd [3]: < 0.001 nM
koff [3]: < 1e-07 s⁻¹
kon [3]: 226000 M⁻¹ s⁻¹
Bmax [4]: 4020
Kd [4]: 1.93 nM
Average *EC50 [nM], PD-1/PD-L1 blockade bioassay [1]: 0.33 nM
B6: PDL1-16E12 (LS/4H5) (antibody, V domains shown)
VH: B1 VH
VL: QLVLTQPPSVSGAPGQRVTISCTGSSSNIGAGYDVHWYQQLPGTAPKLLIYGNSNRPSGVPDRFSGSKSGTSASLAITGLQAEDEADYYCQSYDSSLSGGVFGGGTKLTVL
notes: also called PD-L1-16E12-4H5

Average *EC50 [nM], PD-1/PD-L1 blockade bioassay [1]: 188 nM
B7: PDL1-16E12 (LS/4B8) (antibody, V domains shown)
VH: B1 VH
VL: QLVLTQPPSVSGAPGQSVTISCTGSNSDIGAGHDVHWYQQLPGAAPKLLIHGDRDRPSGVPDRFSGSKSGTSASLAITGLQPEDEADYYCQSYNNSLRGSVFGTGTKVTVL

EC50 (first run) [2]: 0.4 nM
EC50 (second run) [2]: 0.4 nM
Kd [3]: 0.0158 nM
koff [3]: 2.62e-06 s⁻¹
kon [3]: 166000 M⁻¹ s⁻¹
Bmax [4]: 4400
Kd [4]: 2.42 nM
Average *EC50 [nM], PD-1/PD-L1 blockade bioassay [1]: 0.39 nM
B8: PDL1-16E12 (LS/4C9) (antibody, V domains shown)
VH: B1 VH
VL: QLVLTQPPSVSGAPGQRVTISCTGGSSNIGAGYDVHWYQQLPGTAPKLLLFGNTNRPSGVPGRFSGSKSGSSASLAITGLQSDDEADYYCQSYDSSLGGSVIGTGTKVTVL
notes: also called PD-L1-16E12-4C9

Average *EC50 [nM], PD-1/PD-L1 blockade bioassay [1]: 0.83 nM
B9: PDL1-16E12 (LS/4A8) (antibody, V domains shown)
VH: B1 VH
VL: B5 VL with V29I, Q40H, L41R, T44K, K47Q, N53D, V60I, A62D, A82P, Y93F

Average *EC50 [nM], PD-1/PD-L1 blockade bioassay [1]: 1.68 nM
B10: PDL1-16E12 (LS/4F11) (antibody, V domains shown)
VH: B1 VH
VL: B6 VL with L2F, Y33S, S54N, S98N, G100V

EC50 (first run) [2]: 0.43 nM
EC50 (second run) [2]: 0.31 nM
Kd [3]: < 0.001 nM
koff [3]: < 1e-07 s⁻¹
kon [3]: 240000 M⁻¹ s⁻¹
Bmax [4]: 3990
Kd [4]: 1.98 nM
Average *EC50 [nM], PD-1/PD-L1 blockade bioassay [1]: 0.36 nM
B11: PDL1-16E12 (LS/4H8) (antibody, V domains shown)
VH: B1 VH
VL: B1 VL with T8S, I19T, T54S, A72S, F93Y, R95S, R97L, N101G
notes: also called PD-L1-16E12-4H8

EC50 (first run) [2]: 0.38 nM
EC50 (second run) [2]: 0.4 nM
Kd [3]: 0.0396 nM
kon [3]: 161000 M⁻¹ s⁻¹
Bmax [4]: 4260
Kd [4]: 3.92 nM
Average *EC50 [nM], PD-1/PD-L1 blockade bioassay [1]: 0.37 nM
B12: PDL1-16E12 (LS/4A7) (antibody, V domains shown)
VH: B1 VH
VL: QLVLTQPPSVSGAPGQRVTISCTGSSSNIGAGYDVHWYQSLPGTVPKLLISGNSNRPPGVPDRFSGSKSGTSASLAITSLQSEDEADYYCHSYDGSLSEGVFGTGTKVTVL
notes: also called PD-L1-16E12-4A7

Average *EC50 [nM], PD-1/PD-L1 blockade bioassay [1]: 0.47 nM
B13: PDL1-16E12 (LS/4G1) (antibody, V domains shown)
VH: B1 VH
VL: B8 VL with G98S, I102F

Average *EC50 [nM], PD-1/PD-L1 blockade bioassay [1]: 0.45 nM
B14: PDL1-16E12 (LS/4E5) (antibody, V domains shown)
VH: B1 VH
VL: B5 VL with R17G, S25D, V29I, L41F, G52E, N54S, A62D, V99A

Average *EC50 [nM], PD-1/PD-L1 blockade bioassay [1]: 0.51 nM
B15: PDL1-16E12 (LS/4H6) (antibody, V domains shown)
VH: B1 VH
VL: QLVLTQPPSVSAAPGQTVTISCTGSSSNIGAGYDVHWYQQFPGTAPKLLIYGNNNRPSGVPDRFSGSKSGTSASLAITGLQTDDEADYFCQSYDSSLRVSSVFGTGTKVTVL

EC50 (first run) [2]: 0.37 nM
EC50 (second run) [2]: 0.36 nM
Kd [3]: 0.0798 nM
koff [3]: 1.28e-05 s⁻¹
kon [3]: 160000 M⁻¹ s⁻¹
Bmax [4]: 4230
Kd [4]: 2.57 nM
Average *EC50 [nM], PD-1/PD-L1 blockade bioassay [1]: 0.34 nM
B16: PDL1-16E12 (LS/4A11) (antibody, V domains shown)
VH: B1 VH
VL: B6 VL with T19I, L41V, S54N, N55H, A86T, S95N, S96R, G100S, V101L
notes: also called PD-L1-16E12-4A11

Average *EC50 [nM], PD-1/PD-L1 blockade bioassay [1]: 0.57 nM
B17: PDL1-16E12 (LS/4D4) (antibody, V domains shown)
VH: B1 VH
VL: B6 VL with P8S, I29L, G32P, G66V, G99S, G100S

Average *EC50 [nM], PD-1/PD-L1 blockade bioassay [1]: 0.63 nM
B18: PDL1-16E12 (LS/4H9) (antibody, V domains shown)
VH: B1 VH
VL: QFVLTQPPSVSGAPGQRVTISCTGSRSNFGAGHDVHWYQQLPGTAPKLLIYGNNNRPSGVPDRFSGSKSGTSASLAIAGLQSDDEADYYCQSYDSSLSGSVFGTGTKVTVL

Average *EC50 [nM], PD-1/PD-L1 blockade bioassay [1]: 0.46 nM
B19: PDL1-16E12 (LS/4B12) (antibody, V domains shown)
VH: B1 VH
VL: QLVLTQPPSVSGAPGQRVTISCTGSSSNIGAGYDVHWYQQLPGTAPKLIIYGDTKRASGVPDRFSGSKSGTSASLAITGLQAEDGADYYCQSYDNSLSAHAVFGTGTKVTVL
